Among the data in publication PMC5994540 are localisation_or_trafficking values, retold here.

The labels stand for the following.
B1: GluN3A subunit: GluN3A-2/4N→Q (protein)
parent chain: MRRLSLWWLLSRVCLLLPPPCALVLAGVPSSSSHPQPCQILKRIGHAVRVGAVHLQPWTTAPRAASRAQEGGRAGAQRDDPESGTWRPPAPSQGARWLGSALHGRGPPGSRKLGEGAGAETLWPRDALLFAVENLNRVEGLLPYNLSLEVVMAIEAGLGDLPLMPFSSPSSPWSSDPFSFLQSVCHTVVVQGVSALLAFPQSQGEMMELDLVSSVLHIPVLSIVRHEFPRESQNPLHLQLSLENSLSSDADVTVSILTMNNWYNFSLLLCQEDWNITDFLLLTENNSKFHLESVINITANLSSTKDLLSFLQVQMDNIRNSTPTMVMFGCDMDSIRQIFEMSTQFGLSPPELHWVLGDSQNVEELRTEGLPLGLIAHGKTTQSVFEYYVQDAMELVARAVATATMIQPELALLPSTMNCMDVKTTNLTSGQYLSRFLANTTFRGLSGSIKVKGSTIISSENNFFIWNLQHDPMGKPMWTRLGSWQGGRIVMDSGIWPEQAQRHKTHFQHPNKLHLRVVTLIEHPFVFTREVDDEGLCPAGQLCLDPMTNDSSMLDRLFSSLHSSNDTVPIKFKKCCYGYCIDLLEQLAEDMNFDFDLYIVGDGKYGAWKNGHWTGLVGDLLSGTANMAVTSFSINTARSQVIDFTSPFFSTSLGILVRTRDTAAPIGAFMWPLHWTMWLGIFVALHITAIFLTLYEWKSPFGMTPKGRNRNKVFSFSSALNVCYALLFGRTAAIKPPKCWTGRFLMNLWAIFCMFCLSTYTANLAAVMVGEKIYEELSGIHDPKLHHPSQGFRFGTVRESSAEDYVRQSFPEMHEYMRRYNVPATPDGVQYLKNDPEKLDAFIMDKALLDYEVSIDADCKLLTVGKPFAIEGYGIGLPPNSPLTSNISELISQYKSHGFMDVLHDKWYKVVPCGKRSFAVTETLQMGIKHFSGLFVLLCIGFGLSILTTIGEHIVHRLLLPRIKNKSKLQYWLHTSQRFHRALNTSFVEEKQPRSKTKRVEKSRWRRWTCKTEGDSELSLFPRSNLGPQQLMVWNTSNLSHDNQRKYIFNDEEGQNQLGTQAHQDIPLPQRRRELPASLTTNGKADSLNVTRSSVIQELSELEKQIQVIRQELQLAVSRKTELEEYQKTNRTCES
B2: GluN3A subunit: GluN3A-3/4N→Q (protein)
parent chain: MRRLSLWWLLSRVCLLLPPPCALVLAGVPSSSSHPQPCQILKRIGHAVRVGAVHLQPWTTAPRAASRAQEGGRAGAQRDDPESGTWRPPAPSQGARWLGSALHGRGPPGSRKLGEGAGAETLWPRDALLFAVENLNRVEGLLPYNLSLEVVMAIEAGLGDLPLMPFSSPSSPWSSDPFSFLQSVCHTVVVQGVSALLAFPQSQGEMMELDLVSSVLHIPVLSIVRHEFPRESQNPLHLQLSLENSLSSDADVTVSILTMNNWYNFSLLLCQEDWNITDFLLLTENNSKFHLESVINITANLSSTKDLLSFLQVQMDNIRNSTPTMVMFGCDMDSIRQIFEMSTQFGLSPPELHWVLGDSQNVEELRTEGLPLGLIAHGKTTQSVFEYYVQDAMELVARAVATATMIQPELALLPSTMNCMDVKTTNLTSGQYLSRFLANTTFRGLSGSIKVKGSTIISSENNFFIWNLQHDPMGKPMWTRLGSWQGGRIVMDSGIWPEQAQRHKTHFQHPNKLHLRVVTLIEHPFVFTREVDDEGLCPAGQLCLDPMTNDSSMLDRLFSSLHSSNDTVPIKFKKCCYGYCIDLLEQLAEDMNFDFDLYIVGDGKYGAWKNGHWTGLVGDLLSGTANMAVTSFSINTARSQVIDFTSPFFSTSLGILVRTRDTAAPIGAFMWPLHWTMWLGIFVALHITAIFLTLYEWKSPFGMTPKGRNRNKVFSFSSALNVCYALLFGRTAAIKPPKCWTGRFLMNLWAIFCMFCLSTYTANLAAVMVGEKIYEELSGIHDPKLHHPSQGFRFGTVRESSAEDYVRQSFPEMHEYMRRYNVPATPDGVQYLKNDPEKLDAFIMDKALLDYEVSIDADCKLLTVGKPFAIEGYGIGLPPNSPLTSNISELISQYKSHGFMDVLHDKWYKVVPCGKRSFAVTETLQMGIKHFSGLFVLLCIGFGLSILTTIGEHIVHRLLLPRIKNKSKLQYWLHTSQRFHRALNTSFVEEKQPRSKTKRVEKSRWRRWTCKTEGDSELSLFPRSNLGPQQLMVWNTSNLSHDNQRKYIFNDEEGQNQLGTQAHQDIPLPQRRRELPASLTTNGKADSLNVTRSSVIQELSELEKQIQVIRQELQLAVSRKTELEEYQKTNRTCES
B3: GluN3A subunit: N145Q (protein)
parent chain: MRRLSLWWLLSRVCLLLPPPCALVLAGVPSSSSHPQPCQILKRIGHAVRVGAVHLQPWTTAPRAASRAQEGGRAGAQRDDPESGTWRPPAPSQGARWLGSALHGRGPPGSRKLGEGAGAETLWPRDALLFAVENLNRVEGLLPYNLSLEVVMAIEAGLGDLPLMPFSSPSSPWSSDPFSFLQSVCHTVVVQGVSALLAFPQSQGEMMELDLVSSVLHIPVLSIVRHEFPRESQNPLHLQLSLENSLSSDADVTVSILTMNNWYNFSLLLCQEDWNITDFLLLTENNSKFHLESVINITANLSSTKDLLSFLQVQMDNIRNSTPTMVMFGCDMDSIRQIFEMSTQFGLSPPELHWVLGDSQNVEELRTEGLPLGLIAHGKTTQSVFEYYVQDAMELVARAVATATMIQPELALLPSTMNCMDVKTTNLTSGQYLSRFLANTTFRGLSGSIKVKGSTIISSENNFFIWNLQHDPMGKPMWTRLGSWQGGRIVMDSGIWPEQAQRHKTHFQHPNKLHLRVVTLIEHPFVFTREVDDEGLCPAGQLCLDPMTNDSSMLDRLFSSLHSSNDTVPIKFKKCCYGYCIDLLEQLAEDMNFDFDLYIVGDGKYGAWKNGHWTGLVGDLLSGTANMAVTSFSINTARSQVIDFTSPFFSTSLGILVRTRDTAAPIGAFMWPLHWTMWLGIFVALHITAIFLTLYEWKSPFGMTPKGRNRNKVFSFSSALNVCYALLFGRTAAIKPPKCWTGRFLMNLWAIFCMFCLSTYTANLAAVMVGEKIYEELSGIHDPKLHHPSQGFRFGTVRESSAEDYVRQSFPEMHEYMRRYNVPATPDGVQYLKNDPEKLDAFIMDKALLDYEVSIDADCKLLTVGKPFAIEGYGIGLPPNSPLTSNISELISQYKSHGFMDVLHDKWYKVVPCGKRSFAVTETLQMGIKHFSGLFVLLCIGFGLSILTTIGEHIVHRLLLPRIKNKSKLQYWLHTSQRFHRALNTSFVEEKQPRSKTKRVEKSRWRRWTCKTEGDSELSLFPRSNLGPQQLMVWNTSNLSHDNQRKYIFNDEEGQNQLGTQAHQDIPLPQRRRELPASLTTNGKADSLNVTRSSVIQELSELEKQIQVIRQELQLAVSRKTELEEYQKTNRTCES
B4: GluN3A subunit: GluN3A-4/4N→Q (protein)
parent chain: MRRLSLWWLLSRVCLLLPPPCALVLAGVPSSSSHPQPCQILKRIGHAVRVGAVHLQPWTTAPRAASRAQEGGRAGAQRDDPESGTWRPPAPSQGARWLGSALHGRGPPGSRKLGEGAGAETLWPRDALLFAVENLNRVEGLLPYNLSLEVVMAIEAGLGDLPLMPFSSPSSPWSSDPFSFLQSVCHTVVVQGVSALLAFPQSQGEMMELDLVSSVLHIPVLSIVRHEFPRESQNPLHLQLSLENSLSSDADVTVSILTMNNWYNFSLLLCQEDWNITDFLLLTENNSKFHLESVINITANLSSTKDLLSFLQVQMDNIRNSTPTMVMFGCDMDSIRQIFEMSTQFGLSPPELHWVLGDSQNVEELRTEGLPLGLIAHGKTTQSVFEYYVQDAMELVARAVATATMIQPELALLPSTMNCMDVKTTNLTSGQYLSRFLANTTFRGLSGSIKVKGSTIISSENNFFIWNLQHDPMGKPMWTRLGSWQGGRIVMDSGIWPEQAQRHKTHFQHPNKLHLRVVTLIEHPFVFTREVDDEGLCPAGQLCLDPMTNDSSMLDRLFSSLHSSNDTVPIKFKKCCYGYCIDLLEQLAEDMNFDFDLYIVGDGKYGAWKNGHWTGLVGDLLSGTANMAVTSFSINTARSQVIDFTSPFFSTSLGILVRTRDTAAPIGAFMWPLHWTMWLGIFVALHITAIFLTLYEWKSPFGMTPKGRNRNKVFSFSSALNVCYALLFGRTAAIKPPKCWTGRFLMNLWAIFCMFCLSTYTANLAAVMVGEKIYEELSGIHDPKLHHPSQGFRFGTVRESSAEDYVRQSFPEMHEYMRRYNVPATPDGVQYLKNDPEKLDAFIMDKALLDYEVSIDADCKLLTVGKPFAIEGYGIGLPPNSPLTSNISELISQYKSHGFMDVLHDKWYKVVPCGKRSFAVTETLQMGIKHFSGLFVLLCIGFGLSILTTIGEHIVHRLLLPRIKNKSKLQYWLHTSQRFHRALNTSFVEEKQPRSKTKRVEKSRWRRWTCKTEGDSELSLFPRSNLGPQQLMVWNTSNLSHDNQRKYIFNDEEGQNQLGTQAHQDIPLPQRRRELPASLTTNGKADSLNVTRSSVIQELSELEKQIQVIRQELQLAVSRKTELEEYQKTNRTCES
B5: GluN3A subunit: N264Q (protein)
parent chain: MRRLSLWWLLSRVCLLLPPPCALVLAGVPSSSSHPQPCQILKRIGHAVRVGAVHLQPWTTAPRAASRAQEGGRAGAQRDDPESGTWRPPAPSQGARWLGSALHGRGPPGSRKLGEGAGAETLWPRDALLFAVENLNRVEGLLPYNLSLEVVMAIEAGLGDLPLMPFSSPSSPWSSDPFSFLQSVCHTVVVQGVSALLAFPQSQGEMMELDLVSSVLHIPVLSIVRHEFPRESQNPLHLQLSLENSLSSDADVTVSILTMNNWYNFSLLLCQEDWNITDFLLLTENNSKFHLESVINITANLSSTKDLLSFLQVQMDNIRNSTPTMVMFGCDMDSIRQIFEMSTQFGLSPPELHWVLGDSQNVEELRTEGLPLGLIAHGKTTQSVFEYYVQDAMELVARAVATATMIQPELALLPSTMNCMDVKTTNLTSGQYLSRFLANTTFRGLSGSIKVKGSTIISSENNFFIWNLQHDPMGKPMWTRLGSWQGGRIVMDSGIWPEQAQRHKTHFQHPNKLHLRVVTLIEHPFVFTREVDDEGLCPAGQLCLDPMTNDSSMLDRLFSSLHSSNDTVPIKFKKCCYGYCIDLLEQLAEDMNFDFDLYIVGDGKYGAWKNGHWTGLVGDLLSGTANMAVTSFSINTARSQVIDFTSPFFSTSLGILVRTRDTAAPIGAFMWPLHWTMWLGIFVALHITAIFLTLYEWKSPFGMTPKGRNRNKVFSFSSALNVCYALLFGRTAAIKPPKCWTGRFLMNLWAIFCMFCLSTYTANLAAVMVGEKIYEELSGIHDPKLHHPSQGFRFGTVRESSAEDYVRQSFPEMHEYMRRYNVPATPDGVQYLKNDPEKLDAFIMDKALLDYEVSIDADCKLLTVGKPFAIEGYGIGLPPNSPLTSNISELISQYKSHGFMDVLHDKWYKVVPCGKRSFAVTETLQMGIKHFSGLFVLLCIGFGLSILTTIGEHIVHRLLLPRIKNKSKLQYWLHTSQRFHRALNTSFVEEKQPRSKTKRVEKSRWRRWTCKTEGDSELSLFPRSNLGPQQLMVWNTSNLSHDNQRKYIFNDEEGQNQLGTQAHQDIPLPQRRRELPASLTTNGKADSLNVTRSSVIQELSELEKQIQVIRQELQLAVSRKTELEEYQKTNRTCES

The data set can be described thus: surface/total immunofluorescence, COS-7, with GluN1-4a. Particulars: glycan lost; control: wild-type GluN1/GluN3A.
Take B1: the localisation_or_trafficking entry is “no change”.

Take B2: the localisation_or_trafficking entry is “no change”.

With B3, the localisation_or_trafficking entry is “no change”.

As for B4, the localisation_or_trafficking entry is “no change”.

As to B5, the localisation_or_trafficking result is given as “no change”.
